These results are taken from patent publication US20220259298A1 (KYOTO UNIVERSITY, published 2022).

The target in test [1] is T1, N-terminal PA-tagged mouse USAG-1 (WISE) recombinant protein (mouse, UniProt Q9CQN4 24-206).
T1 construct: The pull-downs used culture supernatant of Expi293F cells; also called PA-mUSAG-1 (WISE); purified full-length recombinant mouse USAG-1; not shown: PA tag at the N-terminal
T1 sequence (looked up): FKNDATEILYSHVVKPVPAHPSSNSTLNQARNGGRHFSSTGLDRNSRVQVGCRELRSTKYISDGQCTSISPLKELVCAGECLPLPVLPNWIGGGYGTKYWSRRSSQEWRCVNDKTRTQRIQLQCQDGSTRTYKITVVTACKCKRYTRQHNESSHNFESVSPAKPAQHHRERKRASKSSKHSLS
Description: BLI (Octet), antibody immobilized on the biosensor, mouse USAG-1 at 10, 30, 100 nM, global fitting. The protocol:
For 8 out of the 9 antibodies grouped in Example 8, affinities (KD values) were determined by using the same Octet-based BLI method as in Example 8. […] The affinities were calculated by subjecting the obtained curves to global fitting with an analysis program attached to the Octet device.
Background: In BLI a coated tip is dipped into the sample, and binding shifts an interference pattern.

Test [2] concerns the target T2, human USAG-1 protein (human, UniProt Q6X4U4 24-206).
T2 construct: mature
T2 sequence (looked up): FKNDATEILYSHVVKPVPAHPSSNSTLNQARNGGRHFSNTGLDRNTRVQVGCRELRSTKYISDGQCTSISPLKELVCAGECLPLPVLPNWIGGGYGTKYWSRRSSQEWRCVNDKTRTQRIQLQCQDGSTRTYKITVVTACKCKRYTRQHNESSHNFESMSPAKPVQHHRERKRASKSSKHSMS
Nature of the test: solid-phase ELISA of the hybridoma clone on the immunizing antigen (E. coli-derived human USAG-1, R & D systems), paragraph 134. On the technique in general: In an ELISA, binding on a coated surface is turned into a signal by an enzyme label.

Test [3] deals with T3, human FLAG-tagged USAG-1 transiently forcibly expressed in HEK293 cells (human, UniProt Q6X4U4 24-206).
T3 construct: whole, on cells; Immunostaining of transfected cells; not shown: FLAG tag
T3 sequence (looked up): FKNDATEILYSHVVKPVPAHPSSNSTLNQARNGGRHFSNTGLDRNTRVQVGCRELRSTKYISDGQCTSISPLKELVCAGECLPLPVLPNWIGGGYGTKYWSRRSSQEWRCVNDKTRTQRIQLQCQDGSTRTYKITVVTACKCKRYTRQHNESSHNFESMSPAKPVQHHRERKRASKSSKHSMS
Description: immunostaining of HEK293 cells transiently expressing human FLAG-tagged USAG-1.

The target in test [4] is T2, human USAG-1 protein. Nature of the test: solid-phase ELISA of the hybridoma clone on the immunizing antigen (E. coli-derived human USAG-1, R & D systems), paragraph 134. This is another data set of the same source.
In test [5] the target is T4, 15 amino acid peptide for epitope mapping WRCVNDKTRTQRIQL (SEQ ID NO: 34) (human).
T4 peptide: WRCVNDKTRTQRIQL
Description: peptide array on cellulose membrane, HRP-conjugated anti-mouse antibody, ECL. The protocol: (§1) Briefly, 169 overlapping peptides of 15 amino acids were synthesized based on a human USAG-1 protein sequence (183 amino acid length) excluding a signal peptide by shifting the 15 amino acid sequence from the beginning by one amino acid to prepare a peptide library. The 169 kinds of peptides were bound onto a cellulose membrane to prepare a peptide array. […] After washing, an HRP-conjugated anti-mouse antibody (1/25000 dilution) was added as a secondary antibody, and ECL solution was used for color development.

The target in test [6] is T5, 15 amino acid peptide for epitope mapping EWRCVNDKTRTQRIQ (SEQ ID NO: 33) (human).
T5 peptide: EWRCVNDKTRTQRIQ
Described as above. The protocol:
as §1

Test [7] concerns the target T6, 15 amino acid peptide for epitope mapping QEWRCVNDKTRTQRI (SEQ ID NO: 32) (human).
T6 peptide: QEWRCVNDKTRTQRI
The test is described as above. The protocol:
as §1

For test [8], the target named is T7, 15 amino acid peptide for epitope mapping VNDKTRTQRIQLQCQ (SEQ ID NO: 37) (human).
T7 peptide: VNDKTRTQRIQLQCQ
Described as above. The protocol: as §1

Test [9] has as its target T8, 15 amino acid peptide for epitope mapping CVNDKTRTQRIQLQC (SEQ ID NO: 36) (human).
T8 peptide: CVNDKTRTQRIQLQC
The description is as above. The protocol:
as §1

In test [10] the target is T9, 15 amino acid peptide for epitope mapping RCVNDKTRTQRIQLQ (SEQ ID NO: 35) (human).
T9 peptide: RCVNDKTRTQRIQLQ
The description is as above. The protocol:
as §1

Test [11] addresses T1, N-terminal PA-tagged mouse USAG-1 …. Description: cell-based or functional assay.

What is called Kd is the concentration at which binding is half-saturated.

Where two headings read alike, the source gives them in different places.

B1: mouse anti-USAG-1 neutralizing antibody B (E57) (antibody, mouse IgG1, kappa, V domains shown)
VH: EVQLQQSGPELVKPGASVKISCKTSGYSFTGYYMSWVKQSPEKSLEWIGEINPTTGGSTYNQKFKAKATLTVDKSSSTAYMQLKSLTSEDSAVYYCAREGYYSGISYDAMDYWGQGTSVTVSS
VL: DIQMTQTTSSLSASLGDRVTISCRASQDISNYLSWYQQKPDGTVKLLIYYTSRLHSGVPSRFSGSGSGTDYSLTISNLEQEDIATYFCQQGNTLPRTFGGGTKLEIKR
For the molecule B1, the Kd in [1] was 2.44 nM. In addition, the binding result (with human USAG-1 protein [2]; in test [3]) was “binds” each time.

B2: mouse anti-USAG-1 neutralizing antibody E (B103) (antibody, mouse IgG1, kappa, V domains shown)
VH: DVQLQESGPGLVKPSQSLSLTCSVTGYSITSGYYWNWIRQFPGNKLEWMGCISYDGSNNYNPSLKNRISITRDTSKNQFFLKLNSVTTEDTATYYCARGGLLWGQGTTLTVSS
VL: DIQMTQSPSSLSASLGERVSLTCRASQEISGYLSWLQQKPDGNIKRLIYAASTLDSGVPKRFSGSRSGSDYSLTISRLESEDFADYYCLQYASYPWTFGGGTKLEIKR
notes: Raised against baculovirus-derived rat USAG-1
As to B2, the Kd in test [1] came to 4.97 nM.

B3: mouse anti-USAG-1 neutralizing antibody A (E37) (antibody, mouse IgG1, kappa, V domains shown)
VH: QVQLQQSDAELVNPGASVKISCKVSGYTFTDHTIHWMKQRPEQGLEWIGYIYPGDGSTKYNEKFKGKATLTADKSSSTAYMQLNSLTSEDSAVYFCARTETYYGRIYYYAMDYWGQGTSVTVSS
VL: QIVLSQSPAILSASPGEKVTMTCRASSSVSYMYWYQQKPGSSPKPWIYATSNLASGVPIRFSGSGSGTSYSLTISRVEAEDAATYYCQQWSSNLTFGAGTKLELKR
As to B3, the Kd in test [1] was 2.43 nM. Further, the binding result (in test [3]; with human USAG-1 protein [4]; in test [5]; in test [6]; in [7]; in test [8]) was “binds” throughout. Also, the binding result in test [9] and in [10] was “binds” in each case.

B4: mouse anti-USAG-1 neutralizing antibody C (B14) (antibody, V domains shown)
VH: EVQLQQSGPELVKPGASVKISCKASGYSFTGYYMNWVKQSPEKSLEWIGEINPTTGGTTYNQKFKAKATLTVDKSSSTAYMQLKSLTSEDSAVYYCARLHYDYDGVGYAMDYWGQGTSVTVSS
VL: DIVMTQSHKFMSTSVGDRVSITCKASQDVSTAVAWYQQKPGQSPKLLIYSASYRYTGVPARFTGSGSGTDFTFTISSVQAEDLAVYYCQQHYSTPPTFGGGTKLEIKR
notes: as for B2
As to B4, the Kd in test [1] came out at 4.21 nM. In addition, in test [11], the “EC50 against the BMP signaling inhibition by USAG-1 (BMP ALP assay, C2C12 cells, BMP7)” value amounted to 0.298 µg/mL and the “EC50 against the Wnt signaling inhibition by USAG-1 (WNT reporter assay, luciferase)” value came out at 4.73 µg/mL.
